Test: yeast display, Sf9 membrane polyspecificity reagent, FACS + sequencing; frameworks hold sequencing errors
Outline: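 After 36–48 hours of galactose induction, yeast (Saccharomyces cerevisiae BJ5465) displaying a synthetic nanobody library were stained at 4 °C for 1 hour with 10% biotinylated, detergent-solubilized Sf9 membrane reagent. Streptavidin microbeads enriched the stained cells before FACS sorting into low and high (top ~1%) gates on anti-HA and streptavidin fluorescence. Each clone's polyreactivity label reflects its gate of origin.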

Sequence	polyreactivity (PSR sort gate)
QVQLVESGGGLVQAGASLRLSCAASGRTFWYNAMGGYRQAPGKERELVAAISSTGGRTYYADSVKGRFTISRDNAKNTVYLQMNSLKPEDTAVYYCAARQLSSHYDYWGQGTQVTVSS	low polyreactivity
QVQLVESGGGLVQAGASLRLSCAASGSIFKDNAMGWYRQAPGKERELVAAISWNGGSTYYADSVKGRFTISRDNAKNTVYLHMNSLKPEDTAVYYCATRIYGWSFGSWYKYDYWGQGTQVTVSS	low polyreactivity
QVQLVESGGGLVQAGASLRLSCAASGSIFYGNTMGWYRQAPGKERELVAAISSGGSTKYADSVKGRFTISRDNAKNTVYLQMNSLKPEDTAVYYCAADLPRYWVTWMDYWGQGTQVSVSS	low polyreactivity
QVQLVESGGGLVQAGASLRLSCAASGSIFYHNTMGWYRQAPGKERELITYYADSVKRRFTISRDNAKNTVYLQMNSLKPEDTAVYYCAASPVYRTGPGDYDYWGQGTQVTVSS	low polyreactivity
QVQLVESGGGLVQAGASLRLSCAASGSISKSYAMGWYRQAPGKERELVAAISWRGGSTYADSVKGRFTISRDNAKNTVYLQMNSLKPEDTAVYYCAATNYGTFWGGQSERYDYWGQGTQVTVSS	low polyreactivity
QVQLVESGGGLVQAGASLRLSCAASGSTFHSYAMGWYRQAPGKERELVAAISTSGGSTYYADSVKGRFTISRDNAKNTVYLQMNSLKPEDTAVYYCAAYSISSRMNYWGQGTQVTVSS	high polyreactivity
QVQLVESGGGLVQAGASLRLSCAASGSTFKYYTMGWYRQAPGKERALVAAISFSGARTYYADSVKGRFTISRDNAKNTVYLQMNSLKPEDTAVYYCAKASSYSRRYEYWGQGTQVTVSS	high polyreactivity
QVQLVESGGGLVQAGASLRLSCAASGSTFYYNAMGWYRQAPGKERELVAAISKSSSRTYYADSVKGRFTISRDNAKNTVFLQMNSLKPEDTAGYYCAADAVYYHFDYWGQGTQVTVSS	high polyreactivity
QVQLVESGGGLVQAGASLRLSCAASGYIFVRYAMGWYRQAPGKEREFVAAISSSGGSTRYADSVKVRFTISRDNAKNTVYLQMNSLKPEDTAVYYCAATRVARHGSPMYYWGQGTKVTVSS	high polyreactivity
QVQLVESGGGLVQAGASLSLSCAASGYIFARYAMGLYIQSPGKERELVAAIRGDGGSTYYADSVKGRFTISRDNAKNTVYLQMNSLKPVDTAVYYCSTEIPWVSYYWTYYFWGQCTQVTVSS	high polyreactivity
QVQLVESGGGLVQAGASLSLSSAASGYIFYRYAMGWYRQAPGKERELVAAISSNGVSTYYADSVKGRFTISRDNAKNTVYLQLISLKPEDTAVYYCARDVYASPRRYNSRYNYWGQGTQVTVSS	low polyreactivity
QVQLVESGGGLVQAGCSLRFSSAASGRISNYPMGWYRQPPGKERELVAAITWSGGSTYADSVKGRFTISRDNAKNTVYLQMNSLKPEDTAVYYWAARGTRYWDYRYYAYNYWGQGTQVTVSS	high polyreactivity
QVQLVESGGGLVQAGCSLRISCAASGRIIKSYASGWYRQAPGKERELVAAITWSSGSTYYADSVKGRFTISRDNAKNTVYFQMKRLKPEDTEVYYCAADPIRYRSRHKYGFWGHGTQVTVSS	low polyreactivity
QVQLVESGGGLVQAGCSLRLICAASGSIFDEYAMGWYRKAPGKERELVAAITSNGGSTYADSVKGRFTISRDNAKNTVYLQMNSLKPEDTAVYYCAADYFVYWYYGYGYWGQGTQVTVSS	low polyreactivity
QVQLVESGGGLVQAGCSLRLRCAASGFTFQYNGMGWYRQAPGKERELVAAINWSGGTTYYADSVKGRFTISRDNAKNTVYLLMNCLKPEDTAVYYCAKGYWRRYSPVGGLGYDYWGQGTQVSVSS	high polyreactivity
QVQLVESGGGLVQAGCSLRLSCAACGSIFRAYAMGWYRQAPGKERELVADISRSGGSTYYADSVKGRFTISRDNAKNTVYLQMNSLKPEDTAFYYCAASYLGGQWRALGYDYWGQGTQVTVSS	low polyreactivity
QVQLVESGGGLVQAGCSLRLSCAASGFIFQANAMGWYRQAPGKERELVAAIDDGDSTYADSVKGRFTISRDNAKNTVYLQMNSLKPEDTAVYYCNADLYGAQDRRLDYYAEGYWGQGTQVTVSS	low polyreactivity
QVQLVESGGGLVQAGCSLRLSCAASGFIFSRYTMGWYRQAPGKERELVAAISRRGGNTYYADSVKGRFTISRDNAKNTVYLQMNSLKPEDTAVYYCADEYNQSFDYWGQGTQVTVSS	low polyreactivity
QVQLVESGGGLVQAGCSLRLSCAASGFIILNYTMGLYRQAPGKERELVAAISNGSDRTYYADSVKGRFTISRDNAKNTVYLQMISLKTEDTAVYYCAKDRDFSSPPTESGFDYWGQGTQVNVSS	low polyreactivity
QVQLVESGGGLVQAGCSLRLSCAASGFIYPVNAMGWYRQAPGKERELVAAITYSTGSTYYADSVKGRFTISRDNAKNTVYLQMNSLKPEDTAVYYCAADVPPGEVVTNDYWGQGTQVTVSS	low polyreactivity
QVQLVESGGGLVQAGCSLRLSCAASGFTFGRNAMGWYRQAPGKEREFVADISGSVGSTYYADSVKGRFTISRDNAKNTVYLQMNSLKPEDTAVYYCAADTLYPRWEFDYWGQGTQVTVSS	high polyreactivity

Sequence	polyreactivity (PSR sort gate)
QVQLVESGGGLVQAGCSLRLSCAASGFTFHTYAMGWYRQAPGKERELVAAITGRGGSTYYADSVKGRFTISRDNAKNTVYLQMNSLKPEDTAVYYCTAYRRGWGDRMYYWGLGTQVTVSS	high polyreactivity
QVQLVESGGGLVQAGCSLRLSCAASGFTFPIYAMGWYRQAPGKEREFVAAITASGDNTYYADSVKGRFTISRDNAKNTVYLQINSLKPEDTAVYYCAADWFVDWWEYDYWGQGTQVTVSS	low polyreactivity
QVQLVESGGGLVQAGCSLRLSCAASGIIFAWYAMGWYRQAPGKERELVAGISQSGGRTYYADSVKGRFTISRDNAKNTVYLQMNSLKPEDTAVYYCAAERPYSRVGYYYWGQGTQVTVSS	high polyreactivity
QVQLVESGGGLVQAGCSLRLSCAASGIIYINYAMGWYRQAPGKERELVAVITRGGSTYYADSVKGRFTISRDNAKNTVYLLMNSLKPEDTAVYYCNARYLSWWTGRFNYWGQGTQVTVSS	high polyreactivity
QVQLVESGGGLVQAGCSLRLSCAASGITFTEYAMGWSRQAPGKERELGATISYGGGITYYADSVKGRFTISRDNAKNTVYLQMNSLKPEDTAVYYCAADGLSQVQRGMDYWGQGTQVTVSS	low polyreactivity
QVQLVESGGGLVQAGCSLRLSCAASGLIFPGYDMGWYRQAPGKERELVADISDSGANTYYADSVKGRFTISRDNAKNTVYLQMNSLKPEDTAVYYCAADSSWWYGTSFGRFDYWGQGTQVTVSS	low polyreactivity
QVQLVESGGGLVQAGCSLRLSCAASGLIFRSYAMGWYRQAPGKERELFARISIRGGSTYYADSVKGRFTISRDNAKNTVYLQMNSLKPEDTAVYYCAARPKNNWARTKYGIRYNYWGQGTQVTVSS	high polyreactivity
QVQLVESGGGLVQAGCSLRLSCAASGLIFYYYAMGWYRQAPGKERELVAAITSDDRTYYADSVKGRFTISRDNAKNTVYLQMNSLKPEDTAVYYCAARYHGYLAQYRKYGYGYWGQGTQVTVSS	high polyreactivity
QVQLVESGGGLVQAGCSLRLSCAASGLIIPVYVMGWYRQAPGKERELVADITTVGSTYADSVKGRFTISRDNAKNTVYFQMNSLKPEDTAVYYFADDPPAQQYWWDHGNYWGQGTQVTVSS	low polyreactivity
QVQLVESGGGLVQAGCSLRLSCAASGRTFGVYAMGWYRQAPGKERELVAGIRWRGGSTYYADSVKGRFTISRDNAKNTVYLQMNSLKPEDTAVYYCAADVYLVKYDYWGQGTQVTVSS	low polyreactivity
QVQLVESGGGLVQAGCSLRLSCAASGRTFRSDNSMGWYRQSPGKQRELVAAISQGGGTYYADSVKGRFTISRDNAKNTVYLLMNSLIPEDTAVYYCARDAFYADPSLWYYTYDFWGQGTQETVSS	low polyreactivity
QVQLVESGGGLVQAGCSLRLSCAASGRTFYFYTMGWYRQAPGKVRELVAAISWSGGSTYYADSVKGRFTISRDNAKYTVYLQMNSLKPEDTAVYYCNAVFFKGSESGLDYWGQGTQVTVSS	high polyreactivity
QVQLVESGGGLVQAGCSLRLSCAASGRTFYYNAMGWYRQAPGKERELVAAITRSGSSTYYADSVKGRFTISRDNAKNTVYLQMNSLKPEDTAVYYCAARVGDAYYYWGQGTQVTVSS	high polyreactivity
QVQLVESGGGLVQAGCSLRLSCAASGRTLGWNAMGWYRQAPGKERELVAAISSSTSTYYADSVKGRFTISRDNAKNTVYLQMNSLKPEDTAVYYCAALYWGQGTQVTVSS	low polyreactivity
QVQLVESGGGLVQAGCSLRLSCAASGRTLKYNAMGGYIQAPGKERELVAAISRSGGRLYYADSVKGRFTMSRDNAKNTVYLQMNSLKPEDTAVYYCAKDRSGSYYNFPEYDYWGQGTQVTVSS	high polyreactivity
QVQLVESGGGLVQAGCSLRLSCAASGSIFEPYVMGWYRQAPGKERELVAAIRQTGGSTYYADSVKGRFKISRDNAKNTVYLQMNSLKPEDNAFYYCNAEHNPSGLYDYRGVECEMGYWGQGNQVTVSS	low polyreactivity
QVQLVESGGGLVQAGCSLRLSCAASGSIFPANAMGWYRQAPGKEWEFVAAINWSTGTTYNADSVKGRFTISRDNAKNTVYLQMTSLKPEDTAFYHCAAGDWYSGNTTHFYYWGQGTQVTVSS	low polyreactivity
QVQLVESGGGLVQAGCSLRLSCAASGSIFYQYSMGWYRQAPGKERELVAAITWDGSRTYYADSVKGRFTISRDNAKNSVYLQMNSLKPEDTSVYYSNAVTRYSLFDYWGLGTQVTVSS	high polyreactivity
QVQLVESGGGLVQAGCSLRLSCAASGSIYLVNAMGWYRQAPGKERELVAAIDWSGDTTYYADSVKGRFTISRDYEKNTVYLQMNRLKPEDTAVYYCAAEYEFHEYDYWGQGTQVTVSS	high polyreactivity
QVQLVESGGGLVQAGCSLRLSCAASGSSFYTYTMGWYRQAPGKERELVAAITWSGGSTYYADSVKGRFTISRDNAKNTVYLQMNSLKPEDTAVYFCNADQDYQAARPSGMDYWGQGTQVTVSS	low polyreactivity

Reference: the nanobody polyreactivity screen of Harvey et al. (2022)
